The values that follow come from paper PMC7980507 (Protein Science : A Publication of the Protein Society, 2021).

For the experiment, the target named is His‐tagged SARS‐CoV‐2 spike receptor binding domain (RBD) (SARS-CoV-2, UniProt P0DTC2). The experiment is described as follows: BLI. In general terms: BLI is a label-free optical method that tracks binding on a fibre tip over time.

B1: CB6 (antibody, V domains shown)
VH: EVQLVESGGGLVQPGGSLRLSCAASGFTVSSNYMSWVRQAPGKGLEWVSVIYSGGSTFYADSVKGRFTISRDNSMNTLFLQMNSLRAEDTAVYYCARVLPMYGDYLDYWGQGTLVTVSS
VL: not shown
Regarding B1, the binding result is “binds”.

B2: EY6A (antibody, V domains shown)
VH: EVQLVESGGGVVQPGRSLRLSCAASAFTFSSYDMHWVRQAPGKGLEWVAVISYDGSNKYYADSVKGRFTISRDNSKNTLYLQMNSLRAEDTAVYYCAKDGGKLWVYYFDYWGQGTLVTVSS
VL: not shown
With B2, the binding result is “binds”.
